These results are taken from paper PMC4908976 (Science signaling, 2016).

In this test the target is T1, Gβγ on affinity beads (Gβ with 3xHA-tagged Gγ) (S. cerevisiae, UniProt P18851 1-423; P18852 1-110).
T1 sequence (looked up) 1: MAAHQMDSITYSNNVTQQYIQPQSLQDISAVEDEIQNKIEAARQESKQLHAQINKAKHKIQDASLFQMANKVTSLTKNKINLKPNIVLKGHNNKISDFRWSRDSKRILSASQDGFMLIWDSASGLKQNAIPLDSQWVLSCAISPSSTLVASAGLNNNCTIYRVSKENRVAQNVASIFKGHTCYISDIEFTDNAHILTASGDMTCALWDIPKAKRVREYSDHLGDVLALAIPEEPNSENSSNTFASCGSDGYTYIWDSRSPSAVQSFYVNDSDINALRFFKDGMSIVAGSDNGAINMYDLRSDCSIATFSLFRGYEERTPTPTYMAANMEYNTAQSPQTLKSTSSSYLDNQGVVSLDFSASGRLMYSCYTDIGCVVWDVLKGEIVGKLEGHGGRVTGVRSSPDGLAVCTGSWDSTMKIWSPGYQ
T1 sequence (looked up) 2: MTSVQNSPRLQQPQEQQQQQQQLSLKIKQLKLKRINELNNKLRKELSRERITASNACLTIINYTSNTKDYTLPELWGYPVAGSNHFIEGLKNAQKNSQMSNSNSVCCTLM
Description: affinity purification with mass spectrometry.

B1: myc-tagged Yck1 (yeast casein kinase 1) (enzyme, S. cerevisiae, UniProt P23291 1-538, looked up)
chain: MSMPIASTTLAVNNLTNINGNANFNVQANKQLHHQAVDSPARSSMTATTAANSNSNSSRDDSTIVGLHYKIGKKIGEGSFGVLFEGTNMINGVPVAIKFEPRKTEAPQLRDEYKTYKILNGTPNIPYAYYFGQEGLHNILVIDLLGPSLEDLFDWCGRKFSVKTVVQVAVQMITLIEDLHAHDLIYRDIKPDNFLIGRPGQPDANNIHLIDFGMAKQYRDPKTKQHIPYREKKSLSGTARYMSINTHLGREQSRRDDMEALGHVFFYFLRGHLPWQGLKAPNNKQKYEKIGEKKRSTNVYDLAQGLPVQFGRYLEIVRSLSFEECPDYEGYRKLLLSVLDDLGETADGQYDWMKLNDGRGWDLNINKKPNLHGYGHPNPPNEKSRKHRNKQLQMQQLQMQQLQQQQQQQQYAQKTEADMRNSQYKPKLDPTSYEAYQHQTQQKYLQEQQKRQQQQKLQEQQLQEQQLQQQQQQQQQLRATGQPPSQPQAQTQSQQFGARYQPQQQPSAALRTPEQHPNDDNSSLAASHKGFFQKLGCC
Turning to B1, the “Gβ/Gβ^P− ratio (total MS intensity on Gβγ beads over that on Gβ^P−γ beads)” value turned out to be 2.25.

B2: endogenous Yck2 (untagged native protein) (enzyme, UniProt P23292 1-546, looked up)
chain: MSQVQSPLTATNSGLAVNNNTMNSQMPNRSNVRLVNGTLPPSLHVSSNLNHNTGNSSASYSGSQSRDDSTIVGLHYKIGKKIGEGSFGVLFEGTNMINGLPVAIKFEPRKTEAPQLKDEYRTYKILAGTPGIPQEYYFGQEGLHNILVIDLLGPSLEDLFDWCGRRFSVKTVVQVAVQMITLIEDLHAHDLIYRDIKPDNFLIGRPGQPDANKVHLIDFGMAKQYRDPKTKQHIPYREKKSLSGTARYMSINTHLGREQSRRDDMEAMGHVFFYFLRGQLPWQGLKAPNNKQKYEKIGEKKRLTNVYDLAQGLPIQFGRYLEIVRNLSFEETPDYEGYRMLLLSVLDDLGETADGQYDWMKLNGGRGWDLSINKKPNLHGYGHPNPPNEKSKRHRSKNHQYSSPDHHHHYNQQQQQQQAQAQAQAQAQAKVQQQQLQQAQAQQQANRYQLQPDDSHYDEEREASKLDPTSYEAYQQQTQQKYAQQQQKQMQQKSKQFANTGANGQTNKYPYNAQPTANDEQNAKNAAQDRNSNKSSKGFFSKLGCC
As to B2, the “Gβ/Gβ^P− ratio (total MS intensity on Gβγ beads over that on Gβ^P−γ beads)” value came to 2.09.
